{"source": "paper PMC12435805", "about": "(Nature Chemical Biology, 2025)", "binders": {"B1": {"name": "Nb5-006 (VHH)", "VHH": "VQLVENSGGGLVQAGGSLRLSCAASGSIFSINRMTWYRQAPGKEREWVAAITSGGSTNYADSVKGRFTISRDNAENTVYLQMNSLKPEDTAVYYCEAYGTYTLAPTGEGEYDDYWGQGTQVTVS"}, "B2": {"name": "anti-RECQL5 monomeric Gb5-006 (VHH)", "VHH": "B1 VHH with V1Q, Q2V, L3Q, V4L, E5V, N6E, S7N, L11C, Q13K, T122M", "notes": "also called G5-006; Gb equivalent"}, "B3": {"name": "GbRBD1 (VHH)", "VHH": "QVQLVENGGGCVKAGGSLRLSCAVSGRTFSTAAMGWFRQAPGKEREFVAAIRWSGGSAYYADSVKGRFTISRDKAKNTVYLQMNSLKYEDTAVYYCAQTRVTRSLLSDYATWPYDYWGQGTQVMVS"}, "B4": {"name": "anti-sfGFP monomeric GbEnhancer (VHH)", "VHH": "QVQLVENGGACVKPGGSLRLSCAASGFPVNRYSMRWYRQAPGKEREWVAGMSSAGDRSSYEDSVKGRFTISRDDARNTVYLQMNSLKPEDTAVYYCNVNVGFEYWGQGTQVMVS", "notes": "also called GbGFP; sfGFP Gb"}, "B5": {"name": "GbLysozyme (VHH)", "VHH": "DVQLVENGGGCVKAGGSLRLSCAASGSTDSIEYMTWFRQAPGKAREGVAALYTHTGNTYYTDSVKGRFTISQDKAKNMAYLRMDSVKSEDTAIYTCGATRKYVPVRFALDQSSYDYWGQGTQVMVSS"}, "B6": {"name": "truncated RECQL5 protein (11–453) (domain or fragment, UniProt O94762 11-453, looked up)", "chain": "DPERRVRSTLKKVFGFDSFKTPLQESATMAVVKGNKDVFVCMPTGAGKSLCYQLPALLAKGITIVVSPLIALIQDQVDHLLTLKVRVSSLNSKLSAQERKELLADLEREKPQTKILYITPEMAASSSFQPTLNSLVSRHLLSYLVVDEAHCVSQWGHDFRPDYLRLGALRSRLGHAPCVALTATATPQVQEDVFAALHLKKPVAIFKTPCFRANLFYDVQFKELISDPYGNLKDFCLKALGQEADKGLSGCGIVYCRTREACEQLAIELSCRGVNAKAYHAGLKASERTLVQNDWMEEKVPVIVATISFGMGVDKANVRFVAHWNIAKSMAGYYQESGRAGRDGKPSWCRLYYSRNDRDQVSFLIRKEVAKLQEKRGNKASDKATIMAFDALVTFCEELGCRHAAIAKYFGDALPACAKGCDHCQNPTAVRRRLEALERSSSW", "notes": "also called RECQ5; DNA helicase RECQL5"}, "B7": {"name": "anti-RECQL5 wild-type nanobody (VHH)", "VHH": "QVQLVESGGGLVQAGGSLRLSCAASGSIFSINRMGWYRQAPGKQRELVAAITSGGSTNYADSVKGRFTISRDNAKNTVYLQMNSLKPEDTAIYYCEAYGTYTLAPTGEGEYDDYWGQGTQVTVS", "notes": "also called RECQL5 nanobody; anti-RECQL5 nanobody"}}, "key": {"[1]": {"molecular_target": "B6"}, "[2]": {"molecular_target": "B6", "assay": "BLI", "details": "both partners purified"}, "[3]": {"molecular_target": "SARS-CoV-2 receptor-binding domain (RBD) (SARS-CoV-2, ancestral strain assumed, UniProt P0DTC2, glycans removed; complex for cryo-EM PEGylated with NHS-PEG4-azide)"}, "superfolder GFP": {"molecular_target": "T1, superfolder GFP (Aequorea victoria, engineered …, stabilised)", "T1 construct": "also called sfGFP", "T1 sequence (P42212 other isoform, or with tags, fused parts or gaps, change not shown)": "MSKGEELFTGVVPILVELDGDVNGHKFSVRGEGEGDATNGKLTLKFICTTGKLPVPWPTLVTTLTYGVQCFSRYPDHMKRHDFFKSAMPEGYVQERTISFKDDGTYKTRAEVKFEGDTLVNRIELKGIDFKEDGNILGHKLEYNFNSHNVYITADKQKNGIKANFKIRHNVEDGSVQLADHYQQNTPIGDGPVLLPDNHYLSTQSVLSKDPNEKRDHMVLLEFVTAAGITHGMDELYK", "assay": "BLI", "details": "both partners purified"}, "hen egg white lysozyme": {"molecular_target": "hen egg white lysozyme (Gallus gallus, UniProt P00698)", "sequence (P00698 19-147)": "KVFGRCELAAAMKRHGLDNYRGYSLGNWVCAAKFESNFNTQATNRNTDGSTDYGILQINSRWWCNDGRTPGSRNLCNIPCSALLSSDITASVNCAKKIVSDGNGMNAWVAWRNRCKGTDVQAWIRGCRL"}, "[4]": {"molecular_target": "T2, anti-RECQL5 homoDiGb5-006", "T2 construct": "also called homoDiGb Gb5-006", "assay": "BLI", "details": "both partners purified"}}, "note": "Numbering of substitutions follows the chain as printed. Where two headings read alike, the source gives them in different places.", "data": [{"binder": "B1", "values": [{"measurement": "Kd", "setting": "[1]", "result": 1200, "unit": "nM"}]}, {"binder": "B2", "values": [{"measurement": "Kd", "setting": "[2]", "result": 9, "unit": "µM"}]}, {"binder": "B3", "values": [{"measurement": "binding result", "setting": "[3]", "result": "binds"}]}, {"binder": "B4", "values": [{"measurement": "Kd", "setting": "superfolder GFP", "result": 5, "unit": "nM"}]}, {"binder": "B5", "values": [{"measurement": "binding result", "setting": "hen egg white lysozyme", "result": "binds"}]}, {"binder": "B6", "values": [{"measurement": "Kd", "setting": "[4]", "result": 23.4, "unit": "µM"}]}, {"binder": "B7", "values": [{"measurement": "Kd", "setting": "[2]", "result": 1.2, "unit": "µM"}]}]}
